Test results reported in the supplement of paper PMC9112550, “Optimization of the antimicrobial peptide Bac7 by deep mutational scanning” (BMC Biology, 2022).

system: Escherichia coli TOP10; experiment: shrunken log2 fold change of peptide-encoding DNA abundance (4.5 h post-induction vs induction); higher = less antimicrobial activity (less host growth inhibition); conditions: time post-induction: 4.5 h; library: site-saturation at positions 5, 18, 19, 20
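Note: peptides expressed intracellularly from a pBAD plasmid library in pooled LB shake-flask culture, induced with 0.3% L-arabinose, DNA abundance read by NGS, three biological replicates, DESeq2 with apeglm shrinkage.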

Question: With RRIRSRPPRLPRPRPRPASRPRP as the sequence, how does the “shrunken log2 fold change” value read?
Answer: 0.189

Question: Which “shrunken log2 fold change” value does the source give for RRIRFRPPRLPRPRPRPDCCPRP here?
Answer: -0.0954

Question: Which “shrunken log2 fold change” value does the source give for RRIRHRPPRLPRPRPRPKHNPRP here?
Answer: 0.196

Question: How did the “shrunken log2 fold change” value turn out when RRIRPRPPRLPRPRPRPVFNPRP was run?
Answer: -0.344

Question: RRIRTRPPRLPRPRPRPYMHPRP was tested. Which “shrunken log2 fold change” value did it give?
Answer: -0.685

Question: For RRIRCRPPRLPRPRPRPRGTPRP, which “shrunken log2 fold change” value is on record?
Answer: 0.0528

Question: How did the “shrunken log2 fold change” value turn out when RRIRLRPPRLPRPRPRPQFNPRP was run?
Answer: -0.57

Question: RRIRYRPPRLPRPRPRPWDSPRP was tested. Which “shrunken log2 fold change” value did it give?
Answer: -0.00191

Question: Which “shrunken log2 fold change” value does the source give for RRIRERPPRLPRPRPRPDCKPRP here?
Answer: 0.0476

Question: Which “shrunken log2 fold change” value does the source give for RRIRIRPPRLPRPRPRPDLRPRP here?
Answer: -0.0147

Question: How did the “shrunken log2 fold change” value turn out when RRIRSRPPRLPRPRPRPGKAPRP was run?
Answer: 0.188

Question: Which “shrunken log2 fold change” value does the source give for RRIRHRPPRLPRPRPRPALWPRP here?
Answer: 0.701

Question: With RRIRARPPRLPRPRPRPEKPPRP as the sequence, how does the “shrunken log2 fold change” value read?
Answer: 0.64

Question: Which “shrunken log2 fold change” value does the source give for RRIRDRPPRLPRPRPRPCRTPRP here?
Answer: -0.173

Question: For RRIRWRPPRLPRPRPRPNHVPRP, which “shrunken log2 fold change” value is on record?
Answer: -0.651

Question: Which “shrunken log2 fold change” value does the source give for RRIRERPPRLPRPRPRPWTEPRP here?
Answer: 0.027

Question: For RRIRNRPPRLPRPRPRPFMLPRP, which “shrunken log2 fold change” value is on record?
Answer: -1.17

Question: For RRIRERPPRLPRPRPRPPIIPRP, which “shrunken log2 fold change” value is on record?
Answer: -0.562

Question: How did the “shrunken log2 fold change” value turn out when RRIRHRPPRLPRPRPRPEVFPRP was run?
Answer: -0.0194

Question: With RRIRRRPPRLPRPRPRPFFIPRP as the sequence, how does the “shrunken log2 fold change” value read?
Answer: -0.0305

Question: With RRIRSRPPRLPRPRPRPRGAPRP as the sequence, how does the “shrunken log2 fold change” value read?
Answer: 0.737

Question: With RRIRPRPPRLPRPRPRPDFMPRP as the sequence, how does the “shrunken log2 fold change” value read?
Answer: -0.309

Question: With RRIRPRPPRLPRPRPRPFPPPRP as the sequence, how does the “shrunken log2 fold change” value read?
Answer: -0.0227

Question: How did the “shrunken log2 fold change” value turn out when RRIRDRPPRLPRPRPRPTVYPRP was run?
Answer: 0.12

Question: With RRIRGRPPRLPRPRPRPVVVPRP as the sequence, how does the “shrunken log2 fold change” value read?
Answer: 0.985

Question: With RRIRARPPRLPRPRPRPDKRPRP as the sequence, how does the “shrunken log2 fold change” value read?
Answer: 0.109

Question: Which “shrunken log2 fold change” value does the source give for RRIRLRPPRLPRPRPRPPDCPRP here?
Answer: 0.0366

Question: How did the “shrunken log2 fold change” value turn out when RRIRARPPRLPRPRPRPHKEPRP was run?
Answer: 0.131

Question: Which “shrunken log2 fold change” value does the source give for RRIRWRPPRLPRPRPRPEAKPRP here?
Answer: 0.0319

Question: With RRIRIRPPRLPRPRPRPHSFPRP as the sequence, how does the “shrunken log2 fold change” value read?
Answer: -0.643

Question: With RRIRGRPPRLPRPRPRPNWYPRP as the sequence, how does the “shrunken log2 fold change” value read?
Answer: -0.0124

Question: Which “shrunken log2 fold change” value does the source give for RRIRSRPPRLPRPRPRPAAYPRP here?
Answer: 0.269

Question: With RRIRNRPPRLPRPRPRPVSHPRP as the sequence, how does the “shrunken log2 fold change” value read?
Answer: -0.0709

Question: RRIRGRPPRLPRPRPRPVICPRP was tested. Which “shrunken log2 fold change” value did it give?
Answer: 0.252

Question: For RRIRDRPPRLPRPRPRPYIRPRP, which “shrunken log2 fold change” value is on record?
Answer: -0.12

Question: RRIRDRPPRLPRPRPRPAEWPRP was tested. Which “shrunken log2 fold change” value did it give?
Answer: 0.0244

Question: For RRIRGRPPRLPRPRPRPYCKPRP, which “shrunken log2 fold change” value is on record?
Answer: 0.0688

Question: How did the “shrunken log2 fold change” value turn out when RRIRRRPPRLPRPRPRPMCVPRP was run?
Answer: -0.0364

Question: RRIRMRPPRLPRPRPRPCPEPRP was tested. Which “shrunken log2 fold change” value did it give?
Answer: 0.123

Question: With RRIRRRPPRLPRPRPRPIDMPRP as the sequence, how does the “shrunken log2 fold change” value read?
Answer: 0.0233

Question: How did the “shrunken log2 fold change” value turn out when RRIRARPPRLPRPRPRPGECPRP was run?
Answer: 0.298

Question: With RRIRFRPPRLPRPRPRPPVSPRP as the sequence, how does the “shrunken log2 fold change” value read?
Answer: 0.0761

Question: Which “shrunken log2 fold change” value does the source give for RRIRTRPPRLPRPRPRPIPTPRP here?
Answer: -0.606

Question: For RRIRDRPPRLPRPRPRPLPRPRP, which “shrunken log2 fold change” value is on record?
Answer: 0.391

Question: With RRIRVRPPRLPRPRPRPMCWPRP as the sequence, how does the “shrunken log2 fold change” value read?
Answer: 0.00173

Question: For RRIRCRPPRLPRPRPRPPPPPRP, which “shrunken log2 fold change” value is on record?
Answer: 1.55

Question: Which “shrunken log2 fold change” value does the source give for RRIRGRPPRLPRPRPRPDPGPRP here?
Answer: 0.616

Question: Which “shrunken log2 fold change” value does the source give for RRIRLRPPRLPRPRPRPKHDPRP here?
Answer: -0.0476

Question: With RRIRARPPRLPRPRPRPAWRPRP as the sequence, how does the “shrunken log2 fold change” value read?
Answer: 0.649

Question: How did the “shrunken log2 fold change” value turn out when RRIRKRPPRLPRPRPRPRSFPRP was run?
Answer: -0.0333

Question: With RRIRARPPRLPRPRPRPQCFPRP as the sequence, how does the “shrunken log2 fold change” value read?
Answer: 0.1

Question: For RRIRVRPPRLPRPRPRPGHCPRP, which “shrunken log2 fold change” value is on record?
Answer: 0.258

Question: How did the “shrunken log2 fold change” value turn out when RRIRYRPPRLPRPRPRPQDKPRP was run?
Answer: -0.341

Question: RRIRYRPPRLPRPRPRPDAGPRP was tested. Which “shrunken log2 fold change” value did it give?
Answer: -0.492

Question: Which “shrunken log2 fold change” value does the source give for RRIRLRPPRLPRPRPRPMQSPRP here?
Answer: 0.0626

Question: With RRIRWRPPRLPRPRPRPWMCPRP as the sequence, how does the “shrunken log2 fold change” value read?
Answer: -0.174

Question: RRIRERPPRLPRPRPRPCHWPRP was tested. Which “shrunken log2 fold change” value did it give?
Answer: -0.0135

Question: Which “shrunken log2 fold change” value does the source give for RRIRKRPPRLPRPRPRPTTYPRP here?
Answer: 0.00371

Question: RRIRVRPPRLPRPRPRPQCFPRP was tested. Which “shrunken log2 fold change” value did it give?
Answer: 0.00325

Question: RRIRWRPPRLPRPRPRPWMNPRP was tested. Which “shrunken log2 fold change” value did it give?
Answer: -0.287

Question: With RRIRTRPPRLPRPRPRPQHPPRP as the sequence, how does the “shrunken log2 fold change” value read?
Answer: 0.0586

Question: RRIRTRPPRLPRPRPRPQSCPRP was tested. Which “shrunken log2 fold change” value did it give?
Answer: 0.057

Question: For RRIRFRPPRLPRPRPRPGNGPRP, which “shrunken log2 fold change” value is on record?
Answer: 0.228

Question: RRIRYRPPRLPRPRPRPTGNPRP was tested. Which “shrunken log2 fold change” value did it give?
Answer: -0.858

Question: How did the “shrunken log2 fold change” value turn out when RRIRIRPPRLPRPRPRPVDMPRP was run?
Answer: -0.51

Question: RRIRLRPPRLPRPRPRPKLHPRP was tested. Which “shrunken log2 fold change” value did it give?
Answer: 0.108

Question: RRIRPRPPRLPRPRPRPRTYPRP was tested. Which “shrunken log2 fold change” value did it give?
Answer: -0.196

Question: RRIRIRPPRLPRPRPRPMAMPRP was tested. Which “shrunken log2 fold change” value did it give?
Answer: -0.024

Question: How did the “shrunken log2 fold change” value turn out when RRIRARPPRLPRPRPRPRQLPRP was run?
Answer: 0.449

Question: Which “shrunken log2 fold change” value does the source give for RRIRDRPPRLPRPRPRPLLVPRP here?
Answer: 0.134

Question: With RRIRRRPPRLPRPRPRPASLPRP as the sequence, how does the “shrunken log2 fold change” value read?
Answer: 0.338

Question: For RRIRERPPRLPRPRPRPRDQPRP, which “shrunken log2 fold change” value is on record?
Answer: 0.424

Question: RRIRSRPPRLPRPRPRPFPIPRP was tested. Which “shrunken log2 fold change” value did it give?
Answer: 0.0325

Question: With RRIRLRPPRLPRPRPRPSQLPRP as the sequence, how does the “shrunken log2 fold change” value read?
Answer: -0.282

Question: RRIRDRPPRLPRPRPRPTVGPRP was tested. Which “shrunken log2 fold change” value did it give?
Answer: 0.351
